Results from patent US20260085338.

Molecular target: T7 RNA polymerase, P00573
Sequence (P00573 whole entry): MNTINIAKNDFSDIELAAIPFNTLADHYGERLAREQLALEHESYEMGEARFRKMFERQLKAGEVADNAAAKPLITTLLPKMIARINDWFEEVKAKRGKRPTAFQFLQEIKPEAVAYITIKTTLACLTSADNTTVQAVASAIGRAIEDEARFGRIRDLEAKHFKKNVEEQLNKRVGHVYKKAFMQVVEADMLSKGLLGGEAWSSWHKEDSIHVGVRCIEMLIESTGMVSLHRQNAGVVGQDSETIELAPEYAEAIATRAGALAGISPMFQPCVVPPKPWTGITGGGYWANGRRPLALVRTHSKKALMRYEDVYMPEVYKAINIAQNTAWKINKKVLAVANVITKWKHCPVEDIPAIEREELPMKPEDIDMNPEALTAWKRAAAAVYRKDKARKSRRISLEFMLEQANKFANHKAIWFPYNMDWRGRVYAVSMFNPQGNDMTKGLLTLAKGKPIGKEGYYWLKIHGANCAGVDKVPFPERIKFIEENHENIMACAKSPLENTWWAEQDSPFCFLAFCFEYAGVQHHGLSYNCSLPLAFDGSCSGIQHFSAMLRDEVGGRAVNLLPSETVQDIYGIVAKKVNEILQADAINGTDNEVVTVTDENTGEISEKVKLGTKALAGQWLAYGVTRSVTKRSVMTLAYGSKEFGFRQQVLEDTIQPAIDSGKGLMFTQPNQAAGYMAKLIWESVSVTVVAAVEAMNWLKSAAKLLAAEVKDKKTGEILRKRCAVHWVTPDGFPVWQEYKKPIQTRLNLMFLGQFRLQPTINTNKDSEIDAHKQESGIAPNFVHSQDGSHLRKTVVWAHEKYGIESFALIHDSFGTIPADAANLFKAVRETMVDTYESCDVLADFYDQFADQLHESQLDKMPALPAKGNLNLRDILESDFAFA

B1: T7 lysozyme (protein)
chain: MARVQFKQRESTDAIFVHCSATKPSQNVGVREIRQWHKEQGWLDVGYHFIIKRDGTVEAGRDEMAVGSHAKGYNHNSIGVCLVGGIDDKGKFDANFTPAQMQSLRSLLVTLLAKYEGAVLRAHHEVAPKACPSFDLKRWWEKNELVTSDRG
reduction of msfGFP output upon lysozyme induction (P. putida, 4 mM Rha): T7 (-79%)
